Experimental findings from article PMC6744678 are described below.

This experiment addresses T1, taxol-stabilized microtubules, P02550.
T1 chain: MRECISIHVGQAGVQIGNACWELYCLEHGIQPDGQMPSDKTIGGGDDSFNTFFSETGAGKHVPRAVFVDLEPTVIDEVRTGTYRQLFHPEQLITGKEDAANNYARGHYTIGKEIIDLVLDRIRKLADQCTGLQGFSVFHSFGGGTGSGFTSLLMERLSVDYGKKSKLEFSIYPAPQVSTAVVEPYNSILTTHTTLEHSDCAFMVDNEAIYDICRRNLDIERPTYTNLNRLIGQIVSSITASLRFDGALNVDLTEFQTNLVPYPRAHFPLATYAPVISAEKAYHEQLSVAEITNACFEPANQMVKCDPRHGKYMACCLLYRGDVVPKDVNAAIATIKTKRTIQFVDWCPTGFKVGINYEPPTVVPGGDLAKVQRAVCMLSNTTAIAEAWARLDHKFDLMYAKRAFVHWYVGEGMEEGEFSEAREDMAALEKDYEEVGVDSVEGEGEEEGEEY
As to the kind of experiment: GST pull-down of microtubules, quantified tubulin band intensity. As to conditions: chain shown with the change; BRB80 buffer at room temperature; n=3; parent: est. 27; read off a plot.

B1: GST-tagged full-length (1-314 aa) CCDC74B M67N; L68N; A69N; L71N; L230N; L233N; L234N (protein)
chain: MSGAGVAAGTRPPSSPTPGSRRRRQRPSVGVQSLRPQSPQLRQSDPQKRNLDLEKSLQFLQQQHSENNNKNHEEIEHLKRENKDLRYKLIMNQTSQKKDSLSTSSFQSVKSISNSGKARPQPGSFNKQDSKADVPQKADLEEEPLLHNSKLDKVPGVQGQARKEKAEASNAGAACMGNSQHQGRQMGAAAHPPMILPLPLRKPTTLRQCEVLIRELWNTNLLQTQELQHNKSNNEGSQRPQAVPEEASFPRDQEATHFPKVSTKSLSKKCLLLSPPVAERAILPALKQTPKNNFAERQKRLQAMQKRRLHRSVL
B1: the response (relative intensity (GST = 1.0)) came out at 25.
